From the DeepSol protein solubility set

Experiment: soluble on expression in E. coli; label from the status in PepcDB or PDB records

Row | Sequence | soluble on expression in E. coli
1 | MSLTKTEGKTASAAVKDILLSNPDGLREVIRTVMQEVLEAEMDEALGAAKGERTPERLGYRSGHYGRTLITRVGKLELRVPQDRSGHFSTELFERYQRSERALVATLAEMYVQGVSTRKVKAITEELCGHAFSASSISAINKRLDESLKAFAERSLQEPFAYLILDARYEKVREAGVVMSQAVLIAVGIDWDGRRQILSVEMAGRESRCAWKNFLVRLKGRGLKGVELVVSDDHAGLVAAIGEVIPEAAWQRCYVHFLRNALDHLPRKHGDDCLQELRWLYDRRDLDEAKADLAAWLGKWSVRYPRLTSWVEETIEQTLTFFRLPRQHHKHLKSTNMLERLNEEIRRRTYVVRIFPNTESCLRLVRALAVETHENWMEANRYINMDDLREHKKLALRQAAEGHHHHHH | soluble
2 | MMRTWWLCERTFRARIYVMARERIPEMTINCARERNSTFTSVPTRTWLSSTISAEYVGRNHAHTTPVPANNKDTITTIAEYHCTE | not soluble
3 | MGSDKIHHHHHHMTKLPATSDIYISFFMFTTNLQPDNLDYRRIVVAHIKKLQRFGYSGFEFPIAPGLPENYAQDLENYTNLRHYLDSEGLENVKISTNVGATRTFDPSSNYPEQRQEALEYLKSRVDITAALGGEIMMGPIVIPYGVFPTTDFNEPIWSDELQEHLKVRYANAQPILDKLGEYAEIKKVKLAIEPITHWETPGPNKLSQLIEFLKGVKSKQVGVVIDSAHEILDGEGPEIFKTQVEYLAQQGRLHYVQVSPPDRGALHTSWLPWKSFLTPIVKVYDGPIAVEIFNAIPAFTNSLRLTRRKFWIPDEDPPNQYPNAYDIADEAIKVTRKELKKIGSK | not soluble
4 | MAEPVRLGRKRPLPVCPNPLFVRWLTEWRDEAASRGRHTRFVFQKALRSLQRYPLPLRSGKEAKILQHFGDRLCRMLDEKLKQHLASGGD | soluble
5 | MTVEWLAEQLKEHNIQLTETQKQQFQTYYRLLVEWNEKMNLTSITDEHDVYLKHFYDSIAPSFYFDFNQPISICDVGAGAGFPSIPLKIMFPQLKVTIVDSLNKRIQFLNHLASELQLQDVSFIHDRAETFGKGVYRESYDVVTARAVARLSVLSELCLPLVKKGGQFVALKSSKGEEELEEAKFAISVLGGNVTETHTFELPEDAGERQMFIIDKKRQTPKKYPRKPGTPNKTPLLEK | not soluble
6 | MGSDKIHHHHHHENLYFQGMKQIPQDFRLIEDFFRTRRSVRKFIDRPVEEEKLMAILEAGRIAPSAHNYQPWHFLVVREEEGRKRLAPCSQQPWFPGAPIYIITLGDHQRAWKRGAGDSVDIDTSIAMTYMMLEAHSLGLGCTWVCAFDQALCSEIFDIPSHMTPVSILALGYGDPTVPPREAFNRKTIEEVVSFEKL | soluble
7 | MGSDKIHHHHHHMRIILYLGKGGVGKTTVSASTATAIARSGKRVLIMSTDVAHSLADAFGVELSSTPVEVEKNLFAMEVNILAEIRENWTELYSYFSSILMHDGTNEIVAEELAIVPGMEEMISLRYIWKAAKSGKYDAVVVDAAPTGETMRLLGMPESYGWYSEKIGGWHSKAIGFAAPLLSRFMPKKNIFKLMPEVNEHMKELHGMLQDKSITTFRVVLNPENMVIKEALRVQTYLNLFGYKLDAAVVNKVLPSNSSDPYLQALIDQQAKYLRVIDNCFYPVPIFRAMQSSKEVISTDRLYDLSQELFSGRNPMEVLYSNDKTQTLEKINGKYVLSLYLPNVEVDKLAVNIKGDELLVDINNFRKSIVLPNVLVGRKTEGADFEQGTLNITFAN | not soluble
8 | MPKTQGLSPESLISQFARCEEGWCVQYHDVILASAFQPVISITHKRVVGYEALVRATDANNAQISPDTLFARAQARGETILLDRLTRCLHVANFSEQDTGSCWLFLNVLPQMFDAGIAPSVFIEALCAHFALPPTRVVLEVIEQPSRNEPALARTLDMIQHGDFLIAVDDFGTGFSNFDRIWQIKPDIVKLDRSILERSLAASDAHRIVHHLVTMLHHAGTMVLAEGVENEDALQILMDADVDFVQGFCFGLPDPSLERARRAAPARIETAWQRFAERVKERRGDVVHPGFDTIERIVLAGAADYAQARDLRGAAQRLLTNPIVRRVFVAEANGEQVEPSVTNETPDTPSATTRRLAPLLPELHCNWSRRAYFQRAVAAPGRVALMGPHFSLTDGRDCYTAAVAIHLGTTLKVFCVDFDFSSYGDGQ | not soluble
9 | GPGSMAELHVIGDLAFGEDFGGKSYFCAFEIVTGEHWRVVEGHTSGCTHIMESDSCGGIAWCFPIDVHYTMGSVEGWPKISMQVWSVDGYGRKDLAGYGVAFVPPPGGEEQEVNVETWKPCFWNPNFFIRLYENLREAVMGGGPVLCDKTMIHTNDERFKLRTISSGSVRLHLNVVARGMERLGVRCA | not soluble
10 | MTTINPTNYTLLKKQAASLIEDEHHMIAILSNMSALLNDNLDQINWVGFYLLEQNELILGPFQGHPACVHIPIGKGVCGTAVSERRTQIVADVHQFEGHIACDANSKSEIVVPIFKDDKIIGVLDIDAPITDRFDDNDKEHLEAIVKIIEKQLA | not soluble
11 | MEEIILVFPKEELEVRAMEFKKEFLDCGERIINGSFKLDYVDDYAEWLKIIRNNLKKETVNPKWVVSTTFFAVRKSDNKIIGIVNLRHYLNDFYKNSGHIGYSVRPSERRKGYASEILRQILEYAREKGLTEVCVVCKKENEASRKTILKNGGILSRTFKDEGEEHEAFYINTKKH | not soluble
12 | MVQEIEQWLRRHQVFTEPAYLGETAILLGQQFILSPYLVIYRIEAKEMIICEFRRLTPGQPRPQQLFHLLGLLRGIFVHHPQLTCLKMLIITDVLDEKKAMLRRKLLRILTVMGATFTQLDGDNWTVLSAEHLIQRRF | not soluble
13 | MFDRYDAGEQAVLVHIYFSQDKDMEDLQEFESLVSSAGVEAMQVITGSRKAPHPKYFVGEGKAVEIAEAVKATGAAVVLFDHALSPAQERNLERLCECRVIDRTGLILDIFAQRARTHEGKLQVELAQLRHLATRLVRGWTHLERQKGGIGLRGPGETQLETDRRLLRNRIVQIQSRLEKVEKQREQGRQSRIKADVPTVSLVGYTNAGKSTLFNQITEARVYAADQLFATLDPTLRRIDVADVGETVLADTVGFIRHLPHDLVAAFKATLQETRQATLLLHVVDAADVRVQENIEAVNTVLEEIDAHEIPTLMVMNKIDMLDDFEPRIDRDEENKPIRVWLSAQSGVGIPQLFQALTERLSGEVAQHTLRLPPQEGRLRSRFYQLQAIEKEWMEEDGSVSLQVRMPIVDWRRLCKQEPALIEYVILEHHHHHH | soluble
14 | MSDDEAAVPGNKPIRLPKKAAKVKNKAPAQLQITAEQLLREAKERELELIPPAPKTKITDPDELKEYQRKKRKEFEDGIRKNRMQLANWIKYGKWEESIGEIQRARSVFERALDVDHRSISIWLQYAEMEMRCKQINHARNVFDRAITIMPRAMQFWLKYSYMEEVIENIPGARQIFERWIEWEPPEQAWQTYINFELRYKEIDRARSVYQRFLHVHGINVQNWIKYAKFEERNGYIGNARAAYEKAMEYFGEEDINETVLVAFALFEERQKEHERARGIFKYGLDNLPSNRTEEIFKHYTQHEKKFGERVGIEDVIISKRKTQYEKMVEENGYNYDAWFDYLRLLENEETDREEVEDVYERAIANIPPHSEKRYWRRYIYLWINYALYEELVAKDFDRARQVYKACIDIIPHKTFTFAKVWIMFAHFEIRQLDLNAARKIMGVAIGKCPKDKLFRAYIDLELQLREFDRCRKLYEKFLESSPESSQTWIKFAELETLLGDTDRSRAVFTIAVQQPALDMPELLWKAYIDFEIACEEHEKARDLYETLLQRTNHIKVWISMAEFEQTIGNFEGARKAFERANQSLENAEKEERLMLLEAWKECETKSGDQEALKRVETMMPRRVKKRRQIQTEDGVDAGWEEYFDYIFPQDQAAKGSFKLLEAAARWKREREEAAARAAQELDAPIPEGDDDEEKEEAGKDAEEKVREGDSDTDLSESSSSSDSESSSSSSSDSSDSSDDDEDK | not soluble
15 | GPGSMCNDDARQEGVQWPSSQQLAALADIEGDVQMKAAQLGLLSSEYRANIARVLHHYEPQAATFRTIIYASEQKRKAVERELVWTERIALLQEQRCGTTIVSTRDLMVLEREPLHPVECSLKECYQKLENVAYNELCVLRNYEYPPRQAVATMRMIMRVRGEEDLSWENVQVVLSENYFYTFFVSRMRTLLQKRLPDDVLEELEQYCLNPEHAPEALAVVSVPLGVIGSLLHAVRDYFQVMDLVKRPVEPMSVEERRKKAGELRRALQTLKEDAATATEGMADLKARIASKFVTVRDEYDDTMCPLHDDLEKKTEDFLKVLSGDIPAEEGATGEGECPDAM | not soluble
16 | MDAVNKFSVENWYPHLRKHTFKSHFITLNYNDIHYLMGNIPPDYDSSKLESIFNKILSEFNNKEVFMRLSTRSPKDSKFLFEEASTIMSKDFVYWNENDNKHQQLVSFVASMLKAMKIKSGRKIIETIAQSPRVYNDLLALVSSSNQSDCTTNVILREWHDIRPDHEFRVFVSRRHRKESIVTAISQYFHFLYFDKSPADCFNFLDEEDKKAVIKKFENYVLKSVDPDVAKFLNFSSEQDDDESSDCIREYIVDLALIPVSQYHGEITDENIIEIGANTYVMVVIELNPFAPAATGSGLFNWKNDLMMLWGKASCDYPVFKYRTTPREDLQSVSLLPSNYESVIKSALIKRLETLEHHHHHH | not soluble
17 | MSKVRVAGFSVSVDGFGAGPEQSLNDPLGKRGPEMFQWFFHTRTFRAMMGKDDGSTGIDEDYASRAMANFGAFILGRNMFGPIRGEWPDDAWKGWWGPNPPYHAPTYVLTHYPREPLVMEGGTTFHFVTGGIHQALDQAKAAAGDKDVKIGGGVATVRQYLQAGLIDELHFAVSPVVLGKGEAMFAGIDLPALDFRVTEHAASEKATHIVLAKLEHHHHHH | not soluble
18 | MGSDKIHHHHHHMSLNSTPQSVRVHIGLFGKRNAGKSSIINAITNQSAAIVSDIAGTTTDPVFRPMEILPIGPCVLIDTAGLDDVGELGELRIGKSLDVLEKTDIALLVVDCQIGISQEDLSLIEKFNDKNIPHILILNKIDTIKNQSEILNLTKNKVKCPVVSVSSTDKIGIENLKNEIIKVLPKDSTEFKLVSDLIEPNDLVVLVVPIDKAAPKGRLILPQQQVIRDILDNGAISIVTKEDSLKETLSNLGKKPKLVITDSQVFPQVDKDTPKDIPLTSFSILFARQKGDLKELINGAYALENLKDGDKILMAEGCTHHRQTDDIGTVKIPNMIRKKTGKNITFEFSSGVSFTEDINKYALVVHCGACMMNRAGMLSRIEKAKSFNVPIVNYGVLIAYVKGILERSLELFNY | not soluble
19 | MDVTATPRPHSNTQRPTQAYYVPRKLLECGRGPQSKPTTIDKNEKPIQTSAQQKQKPRPLMDTVISAPPSSLKEKSPQSNRQTKSNKKSSPPPRKSPVMTSSYQVQYPNSPRDLHLVSSTPSSRSSSSMSSNNGIVSPTLTVSSPRIVKGGPQKYSMSRPNAFAPMIAQSDEKECICDRKNTHVVCKRCGYECVGRVQVTCGKHPLILALNDLRECPNPVCHSVQLLECDELDDQDVHDDGVEQLLAEPIEKIDLLS | not soluble
20 | MSDKLTEKTVKLDTPIMRGKTEITEIVLRKPQSGALRGTRLQAIMDMDVGAMMTVIPRISTPTLTAQEMAELDPADLTALSVEVVTFLLKKSVLAGLPTA | not soluble
21 | MELSADYLREKLRQDLEAEHVEVEDTTLNRCATSFRVLVVSAKFEGKPLLQRHRLVNECLAEELPHIHAFEQKTLTPEQWTRQRRE | soluble
